Assay results: paper PMC4608735, “Inhibition of BACE1 Activity by a DNA Aptamer in an Alzheimer’s Disease Cell Model”

B1: A1 (ssDNA)
DNA: GCAATGGTACGGTACTTCCGTCATCAGCTTGTGATGTGGATGCGAACTGCAAAAGTGCACGCTACTTTGCTAA
B2: A4 (ssDNA)
DNA: GCAATGGTACGGTACTTCCTGTGTTATTGTTATGTTTTTTCAGTGTAGTCAAAAGTGCACGCTACTTTGCTAA

Tests used:
[1] = target: β-site APP-cleaving enzyme 1 (BACE1) (UniProt P56817)
[2] = target: BACE1 extracellular domain (human, UniProt P56817 46-457); test: indirect ELISA (plate-coated BACE1); ELISA: BACE1 coated in 1x PBS, 5% BSA block, PBST (0.01% Tween 20, pH 7.4) wash, aptamer 60 min at 37 C; SELEX binding buffer: 1x PBS, 5 mM MgCl2, 0.45% glucose, tRNA, salmon sperm DNA, BSA; FRET: kit Fluorescent Assay Buffer, 37 C, 4 h; conditions: protein: commercial; predicted stem-loop
Sequence of BACE1 extracellular domain (P56817 46-457): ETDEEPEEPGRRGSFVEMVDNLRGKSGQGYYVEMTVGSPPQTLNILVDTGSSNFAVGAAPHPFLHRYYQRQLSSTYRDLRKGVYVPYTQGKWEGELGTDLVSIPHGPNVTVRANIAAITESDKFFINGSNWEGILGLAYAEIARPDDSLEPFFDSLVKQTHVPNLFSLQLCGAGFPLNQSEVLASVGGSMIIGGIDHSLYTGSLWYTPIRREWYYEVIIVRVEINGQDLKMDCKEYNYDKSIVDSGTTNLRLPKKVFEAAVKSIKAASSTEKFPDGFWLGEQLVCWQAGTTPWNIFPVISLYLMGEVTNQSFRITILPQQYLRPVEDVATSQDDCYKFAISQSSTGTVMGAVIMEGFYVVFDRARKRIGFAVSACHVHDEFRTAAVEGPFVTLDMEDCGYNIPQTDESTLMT

Sequence of β-site APP-cleaving enzyme 1 (BACE1) (P56817 46-501): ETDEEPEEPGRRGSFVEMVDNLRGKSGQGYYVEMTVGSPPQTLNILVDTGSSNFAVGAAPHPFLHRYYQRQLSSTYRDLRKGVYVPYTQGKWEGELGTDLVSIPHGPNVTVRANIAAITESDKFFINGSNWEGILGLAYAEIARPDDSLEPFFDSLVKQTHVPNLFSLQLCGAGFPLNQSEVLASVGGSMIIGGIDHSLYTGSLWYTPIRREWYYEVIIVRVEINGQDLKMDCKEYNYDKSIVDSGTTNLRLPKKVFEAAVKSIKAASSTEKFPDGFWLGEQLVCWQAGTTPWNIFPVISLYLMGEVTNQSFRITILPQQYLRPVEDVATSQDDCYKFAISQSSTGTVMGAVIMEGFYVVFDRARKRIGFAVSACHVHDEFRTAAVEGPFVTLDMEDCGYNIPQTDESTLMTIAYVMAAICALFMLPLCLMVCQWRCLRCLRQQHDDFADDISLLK

Molecule	IC50 of inhibition of BACE1 activity (cleavage of a fluorescent substrate, FRET assay of the BACE1 Activity Detection Kit, 4 h, 37°C) [1] [nM]	Kd [2] [nM]
[Asn670, Sta671, Val672]-Amyloid β/A4 Precursor Protein 770 Fragment 662–675 (from UniProt P05067 662-675) (peptide)	242	–
B1	–	68.6 ± 8.12
B2	–	15.3 ± 2.03
